Here are results for one substance from PMC12148371 (iScience, 2025).

For the experiment, the target named is EBOV-GP-RBD without the glycan cap and MLD, displayed on the cell surface (EGPdcm, wild type) (Zaire ebolavirus). As to the kind of experiment: flow cytometry on cells. Background: Flow cytometry measures light scatter and fluorescence of single cells or particles in a stream.

Regarding “NPC1-His (from UniProt O15118 23-1278) (receptor)”, the percent NPC1 binding (positive cells) was determined as 94.7% and the percent NPC1 binding (positive cells), without competitor was 76.4%.
